Data published in US5558865, “HIV immunotherapeutics” (Nissin Shokuhin Kabushiki Kaisha, dated 1996).

Columns and labels:
native HIV-1MN gp120 [1] = molecular target: T1, native HIV-1MN gp120 (HIV-1 strain MN, UniProt P05877)
[2] = molecular target: T2, peptide of amino acids 302-316 of HIV-1MN gp120 (HIV-1 strain MN); test: peptide ELISA, 19.0 ng NM-01
[3] = molecular target: T3, peptide of amino acids 322-336 of HIV-1MN gp120 (HIV-1 strain MN); test: peptide ELISA, 19.0 ng NM-01
T3 peptide: YTTKNIIGTIRQAHC

[4] = molecular target: T4, peptide of amino acids 312-326 of HIV-1MN gp120 (HIV-1 strain MN); test: peptide ELISA, 19.0 ng NM-01
T4 peptide: RIHIGPGRAFYTTKN

[5] = molecular target: T5, IIIB loop peptide Peptide 4 (HIV-1 strain IIIB); test: competition ELISA, 5 µg/ml antibody preincubated with 50 µg/ml peptide, on coated recombinant IIIB gp120
T5 peptide: QRGPGRAF

[6] = molecular target: T2, peptide of amino acids 302-316 of …; test: peptide ELISA, 4.75 ng NM-01
[7] = molecular target: T3, peptide of amino acids 322-336 of …; test: peptide ELISA, 4.75 ng NM-01
[8] = molecular target: T4, peptide of amino acids 312-326 of …; test: peptide ELISA, 4.75 ng NM-01
[9] = molecular target: V3 loop peptide of HIV-1 isolate NY/5 (HIV-1 isolate NY/5); test: peptide ELISA
[10] = molecular target: V3 loop peptide of HIV-1 isolate Z6 (HIV-1 isolate Z6); test: peptide ELISA
[11] = molecular target: V3 loop peptide of HIV-1 isolate ELI (HIV-1 isolate ELI); test: peptide ELISA
[12] = molecular target: V3 loop peptide of HIV-1 isolate CDC4 (HIV-1 isolate CDC4); test: peptide ELISA
[13] = molecular target: T2, peptide of amino acids 302-316 of …; test: peptide ELISA
[14] = molecular target: V3 loop peptide of HIV-1 isolate RF (HIV-1 isolate RF); test: peptide ELISA
[15] = molecular target: V3 loop peptide of HIV-1 isolate Z2 (HIV-1 isolate Z2); test: peptide ELISA
[16] = molecular target: V3 loop peptide of HIV-1 isolate IIIB (HIV-1 isolate IIIB); test: peptide ELISA
[17] = molecular target: T3, peptide of amino acids 322-336 of …; test: peptide ELISA
native HIV-1MN gp120 [18] = molecular target: T1, native HIV-1MN gp120; test: ELISA, hybridoma supernatant on membranes of MN-infected and uninfected H9 cells
native HIV-1IIIB gp120 [19] = molecular target: T6, native HIV-1IIIB gp120 (HIV-1 strain IIIB, UniProt P04578); test: immunofluorescence on slides of IIIB-infected H9 cells
[20] = molecular target: recombinant HIV-1IIIB gp120 (DuPont-NEN) (HIV-1 strain IIIB, UniProt P04578); test: Western blot, colorimetric
[21] = molecular target: T2, peptide of amino acids 302-316 of …; test: peptide ELISA, 9.50 ng NM-01
[22] = molecular target: T3, peptide of amino acids 322-336 of …; test: peptide ELISA, 9.50 ng NM-01
[23] = molecular target: T4, peptide of amino acids 312-326 of …; test: peptide ELISA, 9.50 ng NM-01
[24] = molecular target: T7, IIIB loop peptide Peptide 2 (HIV-1 strain IIIB); test: competition ELISA, 5 µg/ml antibody preincubated with 50 µg/ml peptide, on coated recombinant IIIB gp120
T7 peptide: RIQRGPGR

native HIV-1MN gp120 [25] = molecular target: T1, native HIV-1MN gp120; test: Western blot
[26] = molecular target: recombinant HIV-1MN gp120 (Agmed, Inc.) (HIV-1 strain MN, UniProt P05877); test: Western blot
[27] = molecular target: T8, V3 loop peptide of HIV-1 isolate MN (HIV-1 isolate MN); test: peptide ELISA
T8 peptide: RIHIGPGRAFYTTKN

native HIV-1IIIB gp120 [28] = molecular target: T6, native HIV-1IIIB gp120; test: Western blot, colorimetric
[29] = molecular target: T9, IIIB loop peptide Peptide 3 (HIV-1 strain IIIB); test: competition ELISA, 5 µg/ml antibody preincubated with 50 µg/ml peptide, on coated recombinant IIIB gp120
T9 peptide: IQRGPGRA

B1: monoclonal antibody NM-01 (antibody, V domains shown)
VH: QIQLKESGPAVIKPSQSLSLTCIVSGFSITSSSYCWHWIRQPPGKGLEWMGRICYEGSIDYSPSIKSRSTISRDTSLNRFFIQLSSVTNEDTAMYYCSRENHGTTTSMDYWGQGTSVTVSS
VL: DIVLTQSPASLAVSLGQRATISCRASESVDSYGNSFMHWYQQKPGQSPKLLIYVASNLESGVPARFSGSGSRTDFTLTIDPVEADDAATYYCQQNNEDPLTFGAGTKLELKR
RIA ratio cpm inf/cpm uninf (native HIV-1MN gp120 [1]): 9.81 ratio | optical density at 650 nm [2]: 0.024 OD 650 nm | optical density at 650 nm [3]: 0.03 OD 650 nm | optical density at 650 nm [4]: 1.14 OD 650 nm | binding result [5]: binds | optical density at 650 nm [6]: 0.024 OD 650 nm | optical density at 650 nm [7]: 0.03 OD 650 nm | optical density at 650 nm [8]: 0.781 OD 650 nm | binding result [9]: binds | binding result [10]: no binding | binding result [11]: no binding | binding result [12]: binds | binding result [13]: no binding (tested: 19.0 ng) | binding result [14]: binds | binding result [15]: no binding | binding result [16]: binds | binding result [17]: no binding (tested: 19.0 ng) | ELISA ratio, infected against uninfected cell membranes (Run 1) (native HIV-1MN gp120 [18]): 5.76 ratio | binding result (native HIV-1IIIB gp120 [19]): binds | binding result [20]: binds | optical density at 650 nm [21]: 0.024 OD 650 nm | optical density at 650 nm [22]: 0.028 OD 650 nm | optical density at 650 nm [23]: 0.827 OD 650 nm

B2: monoclonal antibody P4/D10 (antibody, V domains shown)
VH: QIQLQQSGAELASPGASVTLSCKASGYTFTDHIMNWVKKRPGQGLEWIGRIFPVSGETNYNQKFMGKATFSVDRSSSTVSMVLNSLTSEDPAVYYCDLIYYDYEEDYYFDYWGQGTTLTV
VL: DIVLTQSPASLAVSLGQRATISCRASESVDDYGISFMHWYQQKLGQPPKLLIYRASNLESGIPARFSGSGSGTEFTLTINPVETDDVATYYCQQSNKDPLTFGAGTKLELKR
binding result [24]: binds | binding result (native HIV-1MN gp120 [25]): no binding | binding result [26]: no binding | binding result [9]: no binding | binding result [10]: no binding | binding result [11]: no binding | binding result [12]: no binding | binding result [15]: no binding | binding result [16]: binds | binding result [27]: no binding | binding result (native HIV-1IIIB gp120 [28]): binds | binding result [20]: binds

B3: monoclonal antibody F58/H3 (antibody, V domains shown)
VH: B2 VH
VL: B2 VL
binding result [29]: binds | binding result [5]: binds | binding result (native HIV-1MN gp120 [25]): no binding | binding result [26]: no binding | binding result [9]: no binding | binding result [10]: no binding | binding result [11]: no binding | binding result [12]: no binding | binding result [15]: no binding | binding result [16]: binds | binding result [27]: no binding | binding result (native HIV-1IIIB gp120 [28]): binds | binding result [20]: binds
